# According to paper PMC3625234, “The L-Cysteine Desulfurase NFS1 Is Localized in the Cytosol where it Provides the Sulfur for Molybdenum Cofactor Biosynthesis in Humans” (PLoS ONE, 2013):
# B1: MOCS3 purified after expression in Sf9 cells (enzyme, human, UniProt O95396 1-460, looked up)
# chain: MASREEVLALQAEVAQREEELNSLKQKLASALLAEQEPQPERLVPVSPLPPKAALSRDEILRYSRQLVLPELGVHGQLRLGTACVLIVGCGGLGCPLAQYLAAAGVGRLGLVDYDVVEMSNLARQVLHGEALAGQAKAFSAAASLRRLNSAVECVPYTQALTPATALDLVRRYDVVADCSDNVPTRYLVNDACVLAGRPLVSASALRFEGQITVYHYDGGPCYRCIFPQPPPAETVTNCADGGVLGVVTGVLGCLQALEVLKIAAGLGPSYSGSLLLFDALRGHFRSIRLRSRRLDCAACGERPTVTDLLDYEAFCGSSATDKCRSLQLLSPEERVSVTDYKRLLDSGAFHLLLDVRPQVEVDICRLPHALHIPLKHLERRDAESLKLLKEAIWEEKQGTQEGAAVPIYVICKLGNDSQKAVKILQSLSAAQELDPLTVRDVVGGLMAWAAKIDGTFPQY
# notes: MOCS3, human; no tag is named here; also called pMMC30; source: Sf9 cells, purified
# What was measured:
# [1] = target: MOCS3-RLD (purified) (human); assay: SPR; Biacore T200, CM5 chip, target immobilized by amine coupling (400–600 RU), 25°C, 30 µL/min, 20 mM phosphate, 150 mM NaCl, 0.005% Tween 20, pH 7.4; analytes 0.31–10 µM; global fit, 1:1 binding, mean of 3 measurements
# [2] = target: ECFP-MOCS3-RLD fusion (human); assay: FRET or BRET; time-gated FLIM-FRET in transiently transfected HeLa cells; ECFP donor lifetime (long component τ1 of a bi-exponential fit) with EYFP acceptor; N = 30–42 cells
# NFS1Δ1-55/ISD11 complex = target: T1, NFS1Δ1-55/ISD11 complex (human, UniProt Q9Y697 56-457; Q9HD34 1-91); assay: SPR; Biacore T200, CM5 chip, target immobilized by amine coupling (400–600 RU), 25°C, 30 µL/min, 20 mM phosphate, 150 mM NaCl, 0.005% Tween 20, pH 7.4; analytes 0.31–10 µM; global fit, 1:1 binding, mean of 3 measurements; conditions: both partners purified
# T1 construct: L-cysteine desulfurase NFS1, human, without residues 1-55; ISD11, human; source: E. coli BL21(DE3), co-expressed (pZM2 and pZM4), purified
# [3] = target: T2, NFS1Δ1-55^C381A/ISD11 complex (human, UniProt Q9Y697 56-457; Q9HD34 1-91, C381A); assay: as above; conditions: both partners purified
# T2 construct: L-cysteine desulfurase NFS1, human, without residues 1-55, with C381A; ISD11, human; without ISD11 it precipitated; source: E. coli BL21(DE3), co-expressed (pUMT13 and pZM4), purified
# T2 sequence (Q9Y697 56-457 C381A, chain 1 of 2): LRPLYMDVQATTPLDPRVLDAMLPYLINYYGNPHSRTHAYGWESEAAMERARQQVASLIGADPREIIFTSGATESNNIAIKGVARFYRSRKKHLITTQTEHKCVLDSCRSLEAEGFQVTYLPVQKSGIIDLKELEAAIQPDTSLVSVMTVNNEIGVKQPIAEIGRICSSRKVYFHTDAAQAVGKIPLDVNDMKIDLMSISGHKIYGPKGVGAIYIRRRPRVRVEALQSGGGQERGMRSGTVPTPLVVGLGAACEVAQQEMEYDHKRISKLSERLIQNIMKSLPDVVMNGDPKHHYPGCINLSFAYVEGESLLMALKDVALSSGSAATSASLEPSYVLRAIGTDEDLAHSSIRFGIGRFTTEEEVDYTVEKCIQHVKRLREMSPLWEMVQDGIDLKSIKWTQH
# T2 sequence (Q9HD34 whole entry, chain 2 of 2, the tested form may be a part): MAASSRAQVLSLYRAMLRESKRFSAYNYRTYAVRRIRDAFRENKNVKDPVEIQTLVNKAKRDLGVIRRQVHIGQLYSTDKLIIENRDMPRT
# T1 sequence (Q9Y697 56-457, stated change not applied, chain 1 of 2): as the sequence (Q9Y697 56-457 C381A, chain 1 of 2) above, with A326C counted along it
# T1 sequence (Q9HD34 whole entry, stated change not applied, chain 2 of 2, the tested form may be a part): as the sequence (Q9HD34 whole entry, chain 2 of 2, the tested form may be a part) above
molecule,measurement,setting,value
NFS1Δ1-55^C381A/ISD11 complex (from UniProt Q9Y697 56-457; Q9HD34 1-91),Kd,[1],241 nM
EYFP-NFS1Δ1-55 fusion (from UniProt Q9Y697 56-457) (domain or fragment),ECFP donor lifetime τ1,[2],2.9 ns
same,reduction of the ECFP donor lifetime,[2],17%
NFS1Δ1-55 (purified) (from UniProt Q9Y697 56-457) (domain or fragment),Kd,[1],36 nM
NFS1Δ1-55/ISD11 complex (from UniProt Q9Y697 56-457; Q9HD34 1-91),Kd,[1],166 nM
B1,Kd,NFS1Δ1-55/ISD11 complex,119 nM
same,Kd,[3],218 nM
